Reference: patent publication EP1161262B1 (University of Maryland, Baltimore, dated 2008)

T1: colligin/Hsp47 on the surface of human carcinoma cells (human, UniProt P50454 19-418)
T1 construct: whole, on cells; Endogenous protein on cells or in plasma membrane preparations and lysates of surface-biotinylated human SCC cells; also called CBP2; colligin/CBP2/Hsp47
T1 sequence (looked up): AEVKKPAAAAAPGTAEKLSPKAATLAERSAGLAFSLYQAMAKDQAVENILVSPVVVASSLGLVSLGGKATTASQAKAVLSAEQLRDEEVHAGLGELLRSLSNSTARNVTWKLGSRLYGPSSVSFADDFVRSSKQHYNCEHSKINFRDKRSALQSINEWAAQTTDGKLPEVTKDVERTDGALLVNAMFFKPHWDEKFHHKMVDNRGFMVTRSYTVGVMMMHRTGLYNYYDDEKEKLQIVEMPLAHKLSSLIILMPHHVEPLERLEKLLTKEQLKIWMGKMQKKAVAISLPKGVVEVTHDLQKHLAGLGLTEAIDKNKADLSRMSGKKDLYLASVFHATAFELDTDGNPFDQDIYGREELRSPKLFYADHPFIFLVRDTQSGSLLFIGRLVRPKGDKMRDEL

T2: colligin/Hsp47 of the murine Lewis Lung Carcinoma (LL/2) cell line (murine, UniProt P19324 18-417)
T2 construct: whole, on cells; Endogenous protein of LL/2 cells
T2 sequence (looked up): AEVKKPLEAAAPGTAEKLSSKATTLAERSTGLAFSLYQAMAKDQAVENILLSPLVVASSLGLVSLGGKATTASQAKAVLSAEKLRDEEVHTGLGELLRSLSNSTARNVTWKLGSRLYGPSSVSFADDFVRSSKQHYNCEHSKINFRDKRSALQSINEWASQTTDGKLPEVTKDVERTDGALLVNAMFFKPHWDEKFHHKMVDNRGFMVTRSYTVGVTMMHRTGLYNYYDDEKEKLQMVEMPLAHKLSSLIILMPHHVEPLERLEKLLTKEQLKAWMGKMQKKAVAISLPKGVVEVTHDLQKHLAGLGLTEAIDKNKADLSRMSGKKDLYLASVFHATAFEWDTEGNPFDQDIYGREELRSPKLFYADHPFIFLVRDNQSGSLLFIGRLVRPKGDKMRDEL


Tests used:
[1] = molecular target: T1, colligin/Hsp47 on the surface of human …; test: DSP cross-linking of surface-labelled cells, immunoprecipitation with anti-CD81 mAbs
[2] = molecular target: T2, colligin/Hsp47 of the murine Lewis Lung …; test: as above

Binder | binding result [1] | binding result [2]
CD81 of human SCC cells (other, UniProt P60033 1-236, looked up, whole, on cells) MGVEGCTKCIKYLLFVFNFVFWLAGGVILGVALWLRHDPQTTNLLYLELGDKPAPNTFYVGIYILIAVGAVMMFVGFLGCYGAIQESQCLLGTFFTCLVILFACEVAAGIWGFVNKDQIAKDVKQFYDQALQQAVVDDDANNAKAVVKTFHETLDCCGSSTLTALTTSVLKNNLCPSGSNIISNLFKEDCHQKIDDLFSGKLYLIGIAAIVVAVIMIFEMILSMVLCCGIRNSSVY | no binding | 
CD81 of murine LL/2 cells (other, UniProt P35762 1-236, looked up, whole, on cells) MGVEGCTKCIKYLLFVFNFVFWLAGGVILGVALWLRHDPQTTSLLYLELGNKPAPNTFYVGIYILIAVGAVMMFVGFLGCYGAIQESQCLLGTFFTCLVILFACEVAAGIWGFVNKDQIAKDVKQFYDQALQQAVMDDDANNAKAVVKTFHETLNCCGSNALTTLTTTILRNSLCPSGGNILTPLLQQDCHQKIDELFSGKLYLIGIAAIVVAVIMIFEMILSMVLCCGIRNSSVY |  | no binding
